The results in this text go back to publication PMC12514245, “Impaired migration and lung invasion of human melanoma by a novel small molecule targeting the transmembrane domain of death receptor p75^NTR” (EMBO Molecular Medicine, 2025).

First the molecules themselves.
B1: p75^NTR TMD-AraTM chimera, wild type (MBP - p75^NTR TMD - AraC) [human] / itself (parent)
chain: NLIPVYCSILAAVVVGLVAYIAFKRW

Variants of B1 are the subject of this experiment. Put plainly: AraTM assay. The conditions noted are these: with itself, 100% = WT TMD without drug, read off a plot.

As for NLIPAYCSILAAVVVGLVAYIAFKRW [chain 1 V5A], the percent of parent (7.5 µM Div17E5) came out at 92%; the percent of parent (15 µM Div17E5) was 93%; the percent of parent (20 µM Div17E5) stood at 95%; the percent of parent (50 µM Div17E5) is 92%; the percent of parent (no drug (0 µM Div17E5)) stood at 97%.
Consider NLIGVYCSILAAVVVGLVAYIAFKRW [chain 1 P4G], for which the percent of parent (7.5 µM Div17E5) stood at 68%; the percent of parent (15 µM Div17E5) came to 65%; the percent of parent (20 µM Div17E5) turned out to be 55%; the percent of parent (50 µM Div17E5) was 57%; the percent of parent (no drug (0 µM Div17E5)) was determined as 100%.
Take NLAPVYCSILAAVVVGLVAYIAFKRW [chain 1 I3A]: the percent of parent was determined as 97% (7.5 µM Div17E5); 97% (15 µM Div17E5); 97% (20 µM Div17E5); 100% (50 µM Div17E5); 100% (no drug (0 µM Div17E5)).
